Each block holds one binder with its values, some of them ahead of it.
Legend:
mPD-L1 on MB49 cells = molecular target: T1, mPD-L1 on MB49 cells (Mus musculus, UniProt Q9EP73); experiment: flow cytometry of MB49 parental cells, which stain for mPD-L1 in the left panel
T1 construct: endogenous, membrane-located, on MB49 parental mouse bladder cancer cells; also called endogenous mouse PD-L1 on MB49 parental cells
Description: (§1) For flow cytometry analysis, MB49 or BT549 cells were washed twice with ice-cold cell staining buffer (Biolegend, San Diego, CA) and stained with cIgG control, or cPD-L1 12C10E4 cIgG or cPD-L1 A12C10E4 cIgG for 1 hour at 4° C. After three washes with staining buffer, cell samples were stained with Alexa Fluor 488-conjugated anti-canine IgG specific secondary antibody for 30 minutes at 4° C. Cell samples were loaded on BD LSRFortessa (BD, Franklin Lakes, NJ) for analysis. Data analysis was performed on FlowJo v9 software (BD). Every hour, green fluorescent signal was measured and quantified by IncuCyte S3 (Sartorius. Goettingen, Germany). The Image analysis was performed according to the manufacturer's protocol.

[1] = molecular target: T2, His-tagged canine PD-L1 protein (6X His tagged extracellular domain of cPD-L1) (canine, UniProt E2RKZ5 19-236); experiment: cell-free blockade assay: canine PD-L1-His on Ni-NTA plate; blocked ligand PD-1-Fc (cPD-1-hFc), HRP anti-human IgG Fc secondary, OD450
T2 construct: also called cPD-L1-His; canine PD-L1-His
T2 sequence: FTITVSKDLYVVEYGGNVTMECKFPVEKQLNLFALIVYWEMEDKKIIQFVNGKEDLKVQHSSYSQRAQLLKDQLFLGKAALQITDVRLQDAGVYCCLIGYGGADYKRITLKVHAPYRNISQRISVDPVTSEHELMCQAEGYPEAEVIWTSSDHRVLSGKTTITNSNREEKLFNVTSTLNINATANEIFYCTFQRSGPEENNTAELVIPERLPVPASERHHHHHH
Description: For the […] assays. Pierce Ni-NTA coated 96-well plates (ThermoFisher Scientific. Waltham. MA) were coated with canine PD-L1-His proteins and PD-1-Fc proteins (human Fc-protein conjugated) (SinoBiological US. Wayne. PA), and anti-human IgG Fc specific horseradish peroxidase (HRP)-conjugated secondary antibodies (SouthernBiotech. Birmingham. AL) were added, followed by the addition of anti-canine PD-L1, 12C10E4 or cPD-L1 A12C10E4 antibodies. The bound PD-1-Fc protein was quantified by measuring OD450 value with a Synergy LX multi-mode reader.

[2] = molecular target: T3, canine PD-L1 (Flag-cPD-L1) expressed on BT549 cells (canine, UniProt E2RKZ5 19-289); experiment: blockade of cPD-1-hFc binding to cPD-L1, bound cPD-1 quantified by green fluorescence on IncuCyte S3 (FIG. 5E)
T3 construct: Flag-tagged (pGIPZ-shPD-L1/Flag-cPD-L1); Endogenous human PD-L1 was knocked down in the BT549 cells; also called membrane-localized cPD-L1 protein; BT549^cPD-L1 cells
T3 sequence: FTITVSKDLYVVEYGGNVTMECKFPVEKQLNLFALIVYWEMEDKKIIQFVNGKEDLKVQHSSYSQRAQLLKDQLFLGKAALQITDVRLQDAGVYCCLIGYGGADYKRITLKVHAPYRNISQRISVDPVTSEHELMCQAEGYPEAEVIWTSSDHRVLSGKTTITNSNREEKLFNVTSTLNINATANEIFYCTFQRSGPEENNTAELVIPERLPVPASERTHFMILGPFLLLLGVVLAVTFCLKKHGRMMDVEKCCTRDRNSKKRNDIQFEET
Description: (§2) To measure PD-1 protein on the cells. […] cells were seeded per well in 96-well plates. The plates were then incubated with cIgG control (Rockland Immunochemicals. Pottstown, PA). 12C10E4 antibody or cPD-L1 A12C10E4 antibody, cPD-1-hFc protein (human Fc protein conjugated: Sino Biological US. Wayne. PA), and/or anti-human Alexa Fluor 488 dye conjugate (ThermoFisher Scientific. Waltham. MA). Every 3 hours green fluorescent signal was measured and quantified by IncuCyte S3 (Sartorius. Goettingen. Germany) (FIG. 5B). The image analysis was performed according to the manufacturer's protocol.

[3] = molecular target: T4, cPD-L1 on MB49^cPD-L1 cells; experiment: flow cytometry of MB49^cPD-L1 cells
T4 construct: also called canine PD-L1 (Flag-cPD-L1) on mouse PD-L1 knockout MB49 cells
T4 chain: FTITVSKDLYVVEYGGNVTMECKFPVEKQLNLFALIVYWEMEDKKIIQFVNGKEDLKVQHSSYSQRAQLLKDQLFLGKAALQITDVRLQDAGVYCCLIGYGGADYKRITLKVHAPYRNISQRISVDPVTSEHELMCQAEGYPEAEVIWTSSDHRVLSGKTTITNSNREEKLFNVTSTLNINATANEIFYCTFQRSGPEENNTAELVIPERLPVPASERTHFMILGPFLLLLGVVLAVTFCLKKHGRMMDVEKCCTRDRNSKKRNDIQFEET
Description: as §1

[4] = molecular target: T2, His-tagged canine PD-L1 protein (6X His …); experiment: Octet BLI (RED384): His-tagged cPD-L1 loaded on an NTA biosensor at 200 nM, antibody at 50, 100, 200 nmol/L
Description: The binding affinity (KD) of the chimeric cPD-L1/cPD-L1 antibody (12C10E4) for canine PD-L1 was determined by Octet Biolayer interferometry (BLI) using the Octet RED384 system (Sartorius. Bohemia. NY). Briefly. His-tagged cPD-L1 protein was loaded on the Octet NTA biosensor at a concentration of 200 nM. The association step was performed by submerging the sensors in three concentrations of the chimeric cPD-L1/cPD-L1 antibody (12C10E4) (50, 100, 200 nmol/L) in the kinetic buffer. Dissociation was performed and monitored in fresh kinetic buffer. Data were analyzed with Octet Analysis HT software (Sartorius. Bohemia. NY), […].

[5] = molecular target: T2, His-tagged canine PD-L1 protein (6X His …); experiment: cell-free ELISA-based binding assay on His-tagged extracellular domain of cPD-L1, bound antibody as OD450
[6] = molecular target: T5, His-tagged mouse PD-L1 protein (mouse, UniProt Q9EP73 19-238, limits assumed); experiment: plate assay: His-tagged PD-L1 on Ni-NTA 96-well plate, antibody, HRP anti-canine IgG secondary, OD450
T5 construct: also called mPD-L1-His; mPD-L1; not shown: His tag
T5 sequence (Q9EP73 19-238 limits assumed): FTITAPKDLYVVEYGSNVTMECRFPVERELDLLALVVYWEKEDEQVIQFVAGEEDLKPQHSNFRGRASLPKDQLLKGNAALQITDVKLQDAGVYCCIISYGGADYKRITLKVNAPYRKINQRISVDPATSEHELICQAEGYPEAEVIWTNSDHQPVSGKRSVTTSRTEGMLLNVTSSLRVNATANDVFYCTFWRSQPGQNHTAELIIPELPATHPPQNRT
Description: 12C and 3C. with human PD-L1 (hPD-L1), mPD-L1, and cPD-L1 proteins. His-tagged human PD-L1, mPD-L1, or cPD-L1 protein was immobilized on the Ni-NTA 96-well plate, and anti-cPD-L1 Abs. 12C or 3C. with HRP-conjugated anti-canine IgG-specific secondary was added. OD450 was measured to quantify the amount of bound PD-L1 antibodies (Ab=antibody).

[7] = molecular target: T3, canine PD-L1 (Flag-cPD-L1) expressed on …; experiment: cPD-1/cPD-L1 blockade assay on BT549^cPD-L1 cells; blocked ligand cPD-1-hFc; green fluorescence by IncuCyte S3
Description: as §2

[8] = molecular target: T5, His-tagged mouse PD-L1 protein; experiment: plate assay: His-tagged PD-L1 on Ni-NTA 96-well plate, PD-1-hFc, HRP anti-human IgG Fc secondary, OD450 given as fold ratio
Description: (§3) Histidine (His)-tagged canine or mPD-L1 protein was immobilized on the nickel-nitriloacetic acid (Ni-NTA) 96-well plate and horseradish peroxidase (HRP)-conjugated anti-human IgG Fc-specific secondary with mPD-1-hFc or cPD-1-hFc protein was added. OD450 was measured to quantify the amount of bound PD-1 protein.

[9] = molecular target: T5, His-tagged mouse PD-L1 protein; experiment: blocking plate assay: mPD-L1-His on Ni-NTA plate, cPD-1-hFc or mPD-1-hFc, HRP anti-human IgG Fc secondary; 12C concentration not given
Description: as §3

T1 sequence (Q9EP73 19-290 limits assumed): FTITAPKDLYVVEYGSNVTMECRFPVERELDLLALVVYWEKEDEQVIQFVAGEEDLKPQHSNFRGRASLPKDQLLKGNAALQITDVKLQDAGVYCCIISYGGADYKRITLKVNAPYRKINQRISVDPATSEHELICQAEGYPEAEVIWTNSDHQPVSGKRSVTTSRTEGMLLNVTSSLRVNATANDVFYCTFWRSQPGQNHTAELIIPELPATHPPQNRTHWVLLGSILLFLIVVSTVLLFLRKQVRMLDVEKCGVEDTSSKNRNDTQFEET

B1: cPD-L1 12C10E4 chimeric antibody (mouse variable domains, canine IgG2 / canine kappa constant domains) (antibody)
heavy: QVQLKQSGPGLVQPSQSLSITCTISGFSLTSFGVHWVRQSPGKGLEWLGVIWSGGSTDYNAAFTSRLSINKDNSKSQVFFKMNSLQADDTAIYYCARGGGPDWYFDVWGTGTTVTVSSASTTAPSVFPLAPSCGSTSGSTVALACLVSGYFPEPVTVSWNSGSLTSGVHTFPSVLQSSGLYSLSSMVTVPSSRWPSETFTCNVAHPASKTKVDKPVPKRENGRVPRPPDCPKCPAPEMLGGPSVFIFPPKPKDTLLIARTPEVTCVVVDLDPEDPEVQISWFVDGKQMQTAKTQPREEQFNGTYRVVSVLPIGHQDWLKGKQFTCKVNNKALPSPIERTISKARGQAHQPSVYVLPPSREELSKNTVSLTCLIKDFFPPDIDVEWQSNGQQEPESKYRTTPPQLDEDGSYFLYSKLSVDKSRWQRGDTFICAVMHEALHNHYTQKSLSHSPGK
light: DIVLTQSPASLAVSLGQRATISCRASESVEYYGTSLMQWYQQKPGQPPKLLIFAASNVKSGVPARFSGSGSGTDFSLNIHPVEEDDIAMYFCQQSGKVPHTFGGGTKLEIKRSMEIKRTDAQPAVYLFQPSPDQLHTGSASVVCLLNSFYPKDINVKWKVDGVIQDTGIQESVTEQDKDSTYSLSSTLTMSSTEYLSHELYSCEITHKSLPSTLIKSFQRSECQRVD
notes: Expressed in ExpiCHO-S cells from pTRIOZ-cIgG2-12C10E4; also called 12C chimeric antibody; mAb 12C
binding result (mPD-L1 on MB49 cells): no binding
IC50 (read off the curve) [1]: ~0.05 µg/mL
EC50 [2]: 0.419 µg/mL
binding result [3]: binds
Kd [4]: 8.6 nM
EC50 (read off the curve) [5]: ~0.2 µg/mL
binding result [6]: no binding
IC50 (read off the curve) [7]: ~0.06 µg/mL

B4: mPD-1-hFc protein (Fc fusion, mouse, UniProt Q02242 25-167, looked up)
chain: LEVPNGPWRSLTFYPAWLTVSEGANATFTCSLSNWSEDLMLNWNRLSPSNQTEKQAAFCNGLSQPVQDARFQIIQLPNRHDFHMNILDTRRNDSGIYLCGAISLHPKAKIEESPGAELVVTERILETSTRYPSPSPKPEGRFQ
notes: also called mouse PD-1; not shown: human Fc
binding result [8]: binds

B5: murine monoclonal antibody cPD-L1 12C10E4 from the hybridoma (antibody, mouse IgG1, V domains shown)
VH: QVQLKQSGPGLVQPSQSLSITCTISGFSLTSFGVHWVRQSPGKGLEWLGVIWSGGSTDYNAAFTSRLSINKDNSKSQVFFKMNSLQADDTAIYYCARGGGPDWYFDVWGTGTTVTVSS
VL: DIVLTQSPASLAVSLGQRATISCRASESVEYYGTSLMQWYQQKPGQPPKLLIFAASNVKSGVPARFSGSGSGTDFSLNIHPVEEDDIAMYFCQQSGKVPHTFGGGTKLEIK
notes: Hybridoma antibody from A/J mice immunized with the cPD-L1 extracellular domain-human Fc; also called mAb 12C; murine 12C antibody
binding result [9]: no binding

Now from value to binder:

IC50 (read off the curve) [1]: ~0.05 µg/mL
EC50 (read off the curve) [5]: ~0.2 µg/mL
B2: cPD-L1 A12C10E4 chimeric antibody (antibody)
heavy: QVQLKQSGPGLVQPSQSLSITCTISGFSLTSFGVHWVRQSPGKGLEWLGVIWSGGSTDYNAAFTSRLSINKDNSKSQVFFKMNSLQADDTAIYYCARGGGPDWYFDVWGTGTTVTVSSASTTAPSVFPLAPSCGSTSGSTVALACLVSGYFPEPVTVSWNSGSLTSGVHTFPSVLQSSGLYSLSSMVTVPSSRWPSETFTCNVAHPASKTKVDKPVPKRENGRVPRPPDCPKCPAPEMLGGPSVFIFPPKPKDTLLIARTPEVTCVVVDLDPEDPEVQISWFVDGKQMQTAKTQPREEQFNGTYRVVSVLPIGHQDWLKGKQFTCKVNNKALPSPIERTISKARGQAHQPSVYVLPPSREELSKNTVSLTCLIKDFFPPDIDVEWQSNGQQEPESKYRTTPPQLDEDGSYFLYSKLSVDKSRWQRGDTFICAVMHEALHNHYTQKSLSHSPGK
light: DIVLTQSPASLAVSLGQRATISCRASESVEYYGTSLMQWYQQKPGQPPKLLIFAASNVKSGVPARFSGSGSGTDFSLNIHPVEEDDIAMYFCQQSGKVPHTFGGGTKLEIKRSMADAQPAVYLFQPSPDQLHTGSASVVCLLNSFYPKDINVKWKVDGVIQDTGIQESVTEQDKDSTYSLSSTLTMSSTEYLSHELYSCEITHKSLPSTLIKSFQRSECQRVD
notes: also called mAb A12C; cPD-L1 A12C10E4 cIgG

binding result [6]: no binding
B3: cPD-L1 3C chimeric antibody clone (3C8D3 variable domains, canine constant domains) (antibody, V domains shown)
VH: EVQLQQSGPELVKPGASVKMSCKASGYTFTDYVLHWVRQTNGKSLEWIGEINPSNGDTYYNQKFKGKATLTVDTSSSTAYMQLTTLTSEDSAVYYCARSDYSNYVGFAYWGQGTLVTVSA
VL: DIVMTQSHKFMSTSVGDRVSITCKVSQDVGTAVAWYQQKPGQCPKRLIYWTSTRHTGVPDRFTGSGSGTDFTLTISNVQSEDLVDYFCQQYSSYPLTFGGGTKLELKR
notes: also called cPD-L1 3C8D3

From patent US20250277039A1 (PURDUE RESEARCH FOUNDATION, published 2025)
